In paper PMC8752512 (Journal of molecular biology, 2021):

Target: Fgr SH3 domain (human, UniProt P09769 77-138, uniformly 15N-labelled)
Experiment: NMR titration

Kd: 347 µM
Binder: PPTPNPPRPP [arrestin-3 aSwI peptide (PPTPNPPRPP)]
